Data from PMC6764996, “Molecular basis of microhomology-mediated end-joining by purified full-length Polθ”.

Target: Polθ (full-length DNA polymerase theta) (human, UniProt O75417 1-2590)
Assay: fluorescence anisotropy; 1 mM ATP, 10 mM MgCl2; KD printed only in figure; significantly lower than Polθ-pol and Polθ-hel; Anisotropy: 25 mM Tris-HCl pH 8.8, 1 mM DTT, 0.01% NP-40, 10 mM MgCl2, 10% glycerol, 0.1 mg/ml BSA, 1 mM ATP, 30 mM NaCl, room temp, at least 30 min, 10 nM FAM-ssDNA
Settings: protein: recombinant; tags: 3xFLAG (N-terminal); label: 5' FAM

Chain of Polθ (full-length DNA polymerase theta) (O75417 whole entry): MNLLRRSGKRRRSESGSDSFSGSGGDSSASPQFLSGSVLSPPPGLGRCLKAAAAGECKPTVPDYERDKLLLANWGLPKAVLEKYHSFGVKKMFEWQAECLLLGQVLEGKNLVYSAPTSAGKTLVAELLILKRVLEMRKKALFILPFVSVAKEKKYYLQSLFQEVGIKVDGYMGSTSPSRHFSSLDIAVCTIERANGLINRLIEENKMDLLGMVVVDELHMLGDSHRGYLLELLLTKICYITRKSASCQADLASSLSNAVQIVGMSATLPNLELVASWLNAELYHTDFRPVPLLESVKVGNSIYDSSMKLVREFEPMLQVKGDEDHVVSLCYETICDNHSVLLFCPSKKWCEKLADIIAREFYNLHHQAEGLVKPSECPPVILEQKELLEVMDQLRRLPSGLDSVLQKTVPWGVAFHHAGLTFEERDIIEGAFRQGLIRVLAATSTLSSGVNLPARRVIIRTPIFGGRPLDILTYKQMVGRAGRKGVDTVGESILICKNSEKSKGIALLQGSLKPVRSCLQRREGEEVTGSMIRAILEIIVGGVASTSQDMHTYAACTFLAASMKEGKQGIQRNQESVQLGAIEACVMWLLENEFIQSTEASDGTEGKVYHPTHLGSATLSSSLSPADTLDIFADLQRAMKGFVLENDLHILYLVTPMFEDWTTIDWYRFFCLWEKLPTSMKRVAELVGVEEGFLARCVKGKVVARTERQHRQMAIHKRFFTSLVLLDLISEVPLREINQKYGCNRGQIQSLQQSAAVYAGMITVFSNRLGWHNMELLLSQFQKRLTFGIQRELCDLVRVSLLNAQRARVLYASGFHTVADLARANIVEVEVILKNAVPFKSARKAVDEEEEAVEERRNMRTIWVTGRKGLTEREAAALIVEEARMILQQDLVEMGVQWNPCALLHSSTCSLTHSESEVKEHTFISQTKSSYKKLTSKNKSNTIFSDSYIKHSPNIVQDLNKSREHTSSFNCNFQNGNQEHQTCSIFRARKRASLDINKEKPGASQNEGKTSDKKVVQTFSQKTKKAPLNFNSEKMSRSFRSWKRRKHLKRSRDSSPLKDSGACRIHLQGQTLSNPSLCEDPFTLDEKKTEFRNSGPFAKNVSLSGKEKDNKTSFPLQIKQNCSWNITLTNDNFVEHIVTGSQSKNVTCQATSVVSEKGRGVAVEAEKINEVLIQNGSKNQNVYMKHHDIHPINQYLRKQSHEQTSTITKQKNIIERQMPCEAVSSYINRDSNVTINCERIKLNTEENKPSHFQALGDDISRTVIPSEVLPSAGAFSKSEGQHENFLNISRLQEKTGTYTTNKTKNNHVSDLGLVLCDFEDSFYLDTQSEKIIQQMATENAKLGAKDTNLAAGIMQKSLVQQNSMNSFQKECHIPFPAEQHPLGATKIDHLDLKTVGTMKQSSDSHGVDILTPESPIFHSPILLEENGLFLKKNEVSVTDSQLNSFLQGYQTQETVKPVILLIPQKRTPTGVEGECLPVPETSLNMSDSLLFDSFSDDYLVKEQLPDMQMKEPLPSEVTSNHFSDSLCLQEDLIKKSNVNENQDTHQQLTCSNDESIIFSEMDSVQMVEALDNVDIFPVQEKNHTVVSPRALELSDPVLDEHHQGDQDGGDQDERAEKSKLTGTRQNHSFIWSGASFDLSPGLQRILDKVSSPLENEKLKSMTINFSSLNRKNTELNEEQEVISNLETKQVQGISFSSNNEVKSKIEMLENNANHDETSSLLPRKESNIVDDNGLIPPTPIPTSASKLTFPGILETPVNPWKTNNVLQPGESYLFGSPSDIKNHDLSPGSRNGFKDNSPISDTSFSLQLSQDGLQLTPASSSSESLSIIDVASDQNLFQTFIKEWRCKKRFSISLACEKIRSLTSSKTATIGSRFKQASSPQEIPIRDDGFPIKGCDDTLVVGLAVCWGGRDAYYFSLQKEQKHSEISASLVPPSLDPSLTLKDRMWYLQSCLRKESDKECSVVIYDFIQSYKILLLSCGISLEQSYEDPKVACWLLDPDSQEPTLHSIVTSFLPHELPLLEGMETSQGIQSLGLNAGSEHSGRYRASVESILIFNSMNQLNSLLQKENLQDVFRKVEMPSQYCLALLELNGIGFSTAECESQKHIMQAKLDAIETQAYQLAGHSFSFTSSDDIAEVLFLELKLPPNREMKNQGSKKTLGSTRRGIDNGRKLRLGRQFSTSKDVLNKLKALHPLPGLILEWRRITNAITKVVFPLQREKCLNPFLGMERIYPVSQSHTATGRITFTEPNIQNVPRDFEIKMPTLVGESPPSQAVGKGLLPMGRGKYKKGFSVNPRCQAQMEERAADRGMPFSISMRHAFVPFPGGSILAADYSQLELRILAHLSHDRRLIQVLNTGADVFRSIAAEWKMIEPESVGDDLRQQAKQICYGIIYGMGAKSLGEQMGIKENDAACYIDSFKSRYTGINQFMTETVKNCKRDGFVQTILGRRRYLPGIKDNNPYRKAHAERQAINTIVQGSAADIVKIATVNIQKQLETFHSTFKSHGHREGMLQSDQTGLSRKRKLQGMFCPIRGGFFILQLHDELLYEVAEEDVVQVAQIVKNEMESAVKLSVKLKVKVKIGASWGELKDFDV

Q: Does TTTTTTTTTTTTTTTTTTTTTTTTTTTTT (ssDNA) [RP316FAM5 (29 nt ssDNA)] bind?
A: binds
